Data as given in patent US20110130836A1, “Compositions and Methods for Use of Scar Tissue in Repair of Weight Bearing Surfaces” (LANX, INC., priority 2008, published 2011).

Biological target: T1, BMP-2 (Homo sapiens, UniProt P12643)
T1 sequence (P12643 283-396): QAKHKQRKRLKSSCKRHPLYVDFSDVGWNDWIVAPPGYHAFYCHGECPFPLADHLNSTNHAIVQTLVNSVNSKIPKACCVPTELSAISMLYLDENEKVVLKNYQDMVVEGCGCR
Assay: Inhibition of BMP-2 effects by SPP-24
Conditions: 50-fold (w/w) excess of SPP-24
Excerpt: Lyophilized SPP-24 is ground into a fine powder and combined with DBM. […] However, concentrations of growth factors in DBM vary by lot and preparation methodology. For example, Wildemann et al. reports BMP-2 concentrations of 0.004 g BMP-2 per gram total protein. Wildemann et al. (2007) Quantification of various growth factors in different demineralized bone matrix preparations. J. of Biomed. Mat. Res. Part A. 81A(2): 437-442. Thus, SPP to DBM ratios range from about 1:10 to about 2:1, for example, about 1:10, about 1:8, about 1:7, about 1:6, about 1:5, about 1:4, about 1:3, about 1:2, about 1:1, and about 2:1.

effects of BMP-2: completely ablates
B1: secreted phosphoprotein 24 (protein, UniProt Q13103 30-211, looked up)
Secreted phosphoprotein 24: FPVYDYDPSSLRDALSASVVKVNSQSLSPYLFRAFRSSLKRVEVLDENNLVMNLEFSIRETTCRKDSGEDPATCAFQRDYYVSTAVCRSTVKVSAQQVQGVHARCSWSSSTSESYSSEEMIFGDMLGSHKWRNNYLFGLISDESISEQFYDRSLGIMRRVLPPGNRRYPNHRHRARINTDFE
notes: BMP-2 antagonist
